Measurements taken from patent US20260193376A1 (Novo Nordisk, published 2026).
Numbering of substitutions follows the chain as printed.

B1: one-armed (OA) mAb11-1076 (antibody, V domains shown)
VH: EVQLVESGGGLVQPGRSLRLSCAASGFTFHDYAMHWVRQVPGKGLEWVSGISWKGDIGGYVDSVKGRFTISRDNAKNSLYLQMNSLRAEDTALYYCAKSYGSGSFYNAFDSWGQGTLVTVSS
VL: DIQMTQSPSTLSASVGDRVTITCRASQSISSWLAWYQQKPGKAPKFLIYKASKLERGTPSRFSGSGSGTEFTLTISSLQPDDFATYYCLEYSSYIRTFGQGTKVEIK
B2: one-armed (OA) mAb11-1288 (antibody, V domains shown)
VH: B1 VH with A75E, A97V
VL: B1 VL with K53R, E55D, S60Q, T72S, S76Y, S92N
B3: one-armed (OA) mAb11-1273 (antibody, V domains shown)
VH: B1 VH with A75E, A97V
VL: B1 VL with K53R, E55D, T72S, S77E
B4: one-armed (OA) mAb01-9373 (antibody, V domains shown)
VH: B1 VH with R19K, K54R, G58I, M83L, A97V
VL: B1 VL with V15A, R18E, Q27K, K45R, K53R, E55D, S77H
B5: one-armed (OA) mAb11-1276 (antibody, V domains shown)
VH: B1 VH with A75E, A97V
VL: B1 VL with K53R, E55D, T72S, Q79S
B6: one-armed (OA) mAb11-1279 (antibody, V domains shown)
VH: B1 VH with A75E, A97V
VL: B1 VL with K53R, E55D, T72S, S92K
B7: one-armed (OA) mAb11-1501 (antibody, V domains shown)
VH: B1 VH with H30D, K54R, D62K, A97V
VL: B1 VL with E55D
B8: one-armed (OA) mAb11-1286 (antibody, V domains shown)
VH: B1 VH with A75E, A97V
VL: B1 VL with K53R, E55D, T72S, S76Y, S77D, S92R
B9: one-armed (OA) mAb01-9978 (antibody, V domains shown)
VH: B1 VH with A75E, A97V
VL: B1 VL with F46L, K53R, T72S
B10: one-armed (OA) mAb11-1259 (antibody, V domains shown)
VH: B1 VH with A75E, A97V
VL: B1 VL with S28K, K53R, E55D, T72S
B11: one-armed (OA) mAb11-1495 (antibody, V domains shown)
VH: B1 VH with K54R, V61A, D62K, A97V
VL: B1 VL with E55D
B12: one-armed (OA) mAb11-1502 (antibody, V domains shown)
VH: B1 VH with H30D, K54R, D62K, A97V
VL: B1 VL with F46L, E55D
B13: one-armed (OA) mAb01-9933 (antibody, V domains shown)
VH: B1 VH with R19K, H30D, M83L
VL: B1 VL with V15A, R18E, F46L, E55D, T58V, T72S, S77D
B14: one-armed (OA) mAb11-1204 (antibody, V domains shown)
VH: B1 VH with K54R, D62K, A97V
VL: B1 VL with R18E, T72S
B15: one-armed (OA) mAb11-1262 (antibody, V domains shown)
VH: B1 VH with A75E, A97V
VL: B1 VL with S30Q, K53R, E55D, T72S
B16: one-armed (OA) mAb11-1344 (antibody, V domains shown)
VH: B1 VH with R19K, H30D, M83L
VL: B1 VL with V15A, E55D, T72S
B17: one-armed (OA) mAb11-1091 (antibody, V domains shown)
VH: B1 VH with R19K
VL: B1 VL with E55D
B18: one-armed (OA) mAb11-1499 (antibody, V domains shown)
VH: B1 VH with K54R, D62K, A97V
VL: B1 VL with E55D
B19: one-armed (OA) mAb11-1254 (antibody, V domains shown)
VH: B1 VH with A75D, A97V
VL: B1 VL with K53R, E55D, T72S
B20: one-armed (OA) mAb11-1094 (antibody, V domains shown)
VH: B1 VH with R19K
VL: B1 VL
B21: one-armed (OA) mAb11-1268 (antibody, V domains shown)
VH: B1 VH with A75E, A97V
VL: B1 VL with K53R, E55D, S60K, T72S
B22: one-armed (OA) mAb11-1358 (antibody, V domains shown)
VH: B1 VH with R19K, H30D, K54R, M83L, A97V
VL: B1 VL with V15A, E55D, T72S
B23: one-armed (OA) mAb11-1282 (antibody, V domains shown)
VH: B1 VH with A75E, A97V
VL: B1 VL with K53R, E55D, T72S, Y94W
B24: one-armed (OA) mAb11-1266 (antibody, V domains shown)
VH: B1 VH with A75E, A97V
VL: B1 VL with K53R, E55D, R56K, T72S
B25: one-armed (OA) mAb11-1278 (antibody, V domains shown)
VH: B1 VH with A75E, A97V
VL: B1 VL with K53R, E55D, T72S, S92Q
B26: one-armed (OA) mAb11-1260 (antibody, V domains shown)
VH: B1 VH with A75E, A97V
VL: B1 VL with S28Q, K53R, E55D, T72S
B27: one-armed (OA) mAb11-1360 (antibody, V domains shown)
VH: B1 VH with R19K, H30D, K54R, M83L, A97V
VL: B1 VL with F46L, K53R, T72S
B28: one-armed (OA) mAb01-9696 (antibody, V domains shown)
VH: B1 VH with R19K, H30D, K54R, M83L, A97V
VL: B1 VL with V15A, K53R, E55D, T72S
B29: one-armed (OA) mAb11-1233 (antibody, V domains shown)
VH: B1 VH with T28K, A75E, A97V
VL: B1 VL with K53R, E55D, T72S
B30: one-armed (OA) mAb11-1275 (antibody, V domains shown)
VH: B1 VH with A75E, A97V
VL: B1 VL with K53R, E55D, T72S, Q79T
B31: one-armed (OA) mAb11-1389 (antibody, V domains shown)
VH: B1 VH with R19K, V40A
VL: B1 VL with V15A, K53R, E55D, T72S
B32: one-armed (OA) mAb01-9697 (antibody, V domains shown)
VH: B1 VH with R19K, H30D, K54R, M83L, A97V
VL: B1 VL with K53R, T72S
B33: bimAb05-3761 (bispecific antibody, V domains shown)
VH 1: B1 VH with R19K, H30D, M83L
VL 1: B1 VL with V15A, R18E, F46L, E55D, T58V, T72S, S77D
VH 2: EVQLVQSGAEVKKPGESLRISCKGSGYSFSTSWIVWVRQMPGKGLEWMGMIDPSDSFTSYSPSFQGHVTISADKSISTAYLQWSSLKASDTAMYYCARLHYYNSEEFDVWGQGTLVTVSS
VL 2: EIVLTQSPGTLSLSPGERATLSCRASQSVSSSYLAWYQQKPGQAPRLLIYGQSSRTRGIPDRFSGSGSGTDFTLTISRLEPEDFAVYYCQQFGDSQLFTFGQGTKLEIK
B34: bimAb05-0745 (bispecific antibody, V domains shown)
VH 1: B1 VH with A75E, A97V
VL 1: B1 VL with K53R, E55D, T72S
VH 2: B33 VH 2
VL 2: B33 VL 2
B35: bimAb05-2113 (bispecific antibody, V domains shown)
VH 1: B1 VH with R19K, H30D, M83L
VL 1: B1 VL with V15A, R18E, F46L, E55D, T58V, T72S, S77D
VH 2: B33 VH 2 with V35S, F57Y, L115M
VL 2: B33 VL 2 with F92Y
B36: bimAb05-0746 (bispecific antibody, V domains shown)
VH 1: B1 VH with A75E, A97V
VL 1: B1 VL with F46L, K53R, T72S
VH 2: B33 VH 2
VL 2: B33 VL 2
B37: bimAb05-3769 (bispecific antibody, V domains shown)
VH 1: B1 VH with K54R, D62K, A97V
VL 1: B1 VL with T72S
VH 2: B33 VH 2
VL 2: B33 VL 2
B38: bimAb05-2112 (bispecific antibody, V domains shown)
VH 1: B1 VH with A75E, A97V
VL 1: B1 VL with K53R, E55D, T72S
VH 2: B33 VH 2 with V35S, F57Y, L115M
VL 2: B33 VL 2 with F92Y
B39: bimAb05-2114 (bispecific antibody, V domains shown)
VH 1: B1 VH with K54R, D62K, A97V
VL 1: B1 VL with T72S
VH 2: B33 VH 2 with V35S, F57Y, L115M
VL 2: B33 VL 2 with F92Y

biological target: T1, human plasma-derived Factor IXa (human, UniProt P00740 47-191; P00740 227-461); assay: cell-based or functional assay
T1 sequence (P00740 47-191, chain 1 of 2): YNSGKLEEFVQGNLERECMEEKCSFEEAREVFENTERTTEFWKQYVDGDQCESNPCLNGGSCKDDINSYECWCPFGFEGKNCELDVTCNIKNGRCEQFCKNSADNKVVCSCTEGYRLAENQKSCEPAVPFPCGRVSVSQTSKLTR
T1 sequence (P00740 227-461, chain 2 of 2): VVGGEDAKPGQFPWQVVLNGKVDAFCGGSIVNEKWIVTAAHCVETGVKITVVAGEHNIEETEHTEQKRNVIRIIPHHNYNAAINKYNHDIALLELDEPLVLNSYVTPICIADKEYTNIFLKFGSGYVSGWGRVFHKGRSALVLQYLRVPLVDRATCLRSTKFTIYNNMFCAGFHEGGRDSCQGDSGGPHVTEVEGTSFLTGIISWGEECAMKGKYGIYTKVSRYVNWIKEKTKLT

In order of falling “Stimulation Index, FXa generation assay, 800 nM OA antibody” value:
1. B31  5790 fold
2. B17  5400 fold
3. B16  4660 fold
4. B20  4080 fold
5. B1  3590 fold
6. B22  2830 fold
7. B2  2530 fold
8. B10  2000 fold
9. B15  1950 fold
10. B30  1840 fold
11. B8  1820 fold
12. B21  1800 fold
13. B26  1760 fold
14. B5  1740 fold
15. B24  1700 fold
16. B29  1700 fold
17. B25  1690 fold
18. B6  1560 fold
19. B3  1540 fold
20. B23  1460 fold
21. B27  1110 fold

In order of rising “Stimulation Index, FXa generation assay, 1600 nM OA antibody” value:
1. B4  1390 fold
2. B28  5170 fold
3. B12  5850 fold
4. B11  7690 fold
5. B18  9010 fold
6. B14  9100 fold
7. B7  10300 fold

In order of rising “Stimulation Index, FXa generation assay, 3600 nM OA antibody” value:
1. B9  3670 fold
2. B13  6440 fold

For B19, the “Stimulation Index, FXa generation assay, 760 nM OA antibody” value was 1890 fold.

With B32 the “Stimulation Index, FXa generation assay, 3200 nM OA antibody” value was 6540 fold.

biological target: T1, human plasma-derived Factor IXa; assay: cell-based or functional assay; remark: another data set of the same source

With B33 the “Maximum stimulation (fold), FXa generation assay with bispecific antibody; maximum at 2690 nM” value was 16300 fold.

In the case of B34, the “Maximum stimulation (fold), FXa generation assay with bispecific antibody; maximum at 7980 nM” value is reported as 21100 fold.

In the case of B35, the “Maximum stimulation (fold), FXa generation assay with bispecific antibody; maximum at 7600 nM” value is reported as 26300 fold.

For B36, the “Maximum stimulation (fold), FXa generation assay with bispecific antibody; maximum at 3717 nM” value was 14600 fold.

With B37 the “Maximum stimulation (fold), FXa generation assay with bispecific antibody; maximum at 8170 nM” value was 27400 fold.

With B38 the “Maximum stimulation (fold), FXa generation assay with bispecific antibody; maximum at 7820 nM” value was 30400 fold.

B39 was tested, and the “Maximum stimulation (fold), FXa generation assay with bispecific antibody; maximum at 7580 nM” value was 35200 fold.
